In PMC5384220, “Highly selective inhibition of histone demethylases by de novo macrocyclic peptides” (Nature Communications, 2017):

What was measured:
His-KDM4A_(1–359)-Bio = target: T1, His-KDM4A_(1–359)-Bio (human, UniProt O75164 1-359, biotin on the AviTag (>95% biotinylation)); test: BLI; His-KDM4A(1–359)-Bio (70 nM) immobilised on super streptavidin biosensor, peptides at different concentrations in solution; OctetRed 384; 50 mM HEPES pH 7.5, 150 mM NaCl, 10 μM ammonium iron(II) sulphate; conditions: both partners purified
T1 construct: KDM4A, residues 1-359, cloned into pNIC-Bio3; also called His-KDM4A-Bio; His-KDM4A with biotin; not shown: AviTag, C-terminal, kept
T1 sequence (looked up): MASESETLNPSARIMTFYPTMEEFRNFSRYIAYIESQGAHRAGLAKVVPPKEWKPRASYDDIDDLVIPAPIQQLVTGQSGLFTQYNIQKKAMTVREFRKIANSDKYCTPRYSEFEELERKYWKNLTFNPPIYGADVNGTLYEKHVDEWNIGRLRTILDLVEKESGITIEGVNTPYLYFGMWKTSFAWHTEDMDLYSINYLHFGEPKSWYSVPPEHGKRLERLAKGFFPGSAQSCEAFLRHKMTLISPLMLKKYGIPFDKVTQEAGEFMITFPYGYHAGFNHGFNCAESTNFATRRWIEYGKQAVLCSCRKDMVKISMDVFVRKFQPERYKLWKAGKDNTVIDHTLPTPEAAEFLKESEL

KDM3A = target: T2, KDM3A (human, UniProt Q9Y4C1 1-1321); test: cell-based or functional assay
T2 sequence (looked up): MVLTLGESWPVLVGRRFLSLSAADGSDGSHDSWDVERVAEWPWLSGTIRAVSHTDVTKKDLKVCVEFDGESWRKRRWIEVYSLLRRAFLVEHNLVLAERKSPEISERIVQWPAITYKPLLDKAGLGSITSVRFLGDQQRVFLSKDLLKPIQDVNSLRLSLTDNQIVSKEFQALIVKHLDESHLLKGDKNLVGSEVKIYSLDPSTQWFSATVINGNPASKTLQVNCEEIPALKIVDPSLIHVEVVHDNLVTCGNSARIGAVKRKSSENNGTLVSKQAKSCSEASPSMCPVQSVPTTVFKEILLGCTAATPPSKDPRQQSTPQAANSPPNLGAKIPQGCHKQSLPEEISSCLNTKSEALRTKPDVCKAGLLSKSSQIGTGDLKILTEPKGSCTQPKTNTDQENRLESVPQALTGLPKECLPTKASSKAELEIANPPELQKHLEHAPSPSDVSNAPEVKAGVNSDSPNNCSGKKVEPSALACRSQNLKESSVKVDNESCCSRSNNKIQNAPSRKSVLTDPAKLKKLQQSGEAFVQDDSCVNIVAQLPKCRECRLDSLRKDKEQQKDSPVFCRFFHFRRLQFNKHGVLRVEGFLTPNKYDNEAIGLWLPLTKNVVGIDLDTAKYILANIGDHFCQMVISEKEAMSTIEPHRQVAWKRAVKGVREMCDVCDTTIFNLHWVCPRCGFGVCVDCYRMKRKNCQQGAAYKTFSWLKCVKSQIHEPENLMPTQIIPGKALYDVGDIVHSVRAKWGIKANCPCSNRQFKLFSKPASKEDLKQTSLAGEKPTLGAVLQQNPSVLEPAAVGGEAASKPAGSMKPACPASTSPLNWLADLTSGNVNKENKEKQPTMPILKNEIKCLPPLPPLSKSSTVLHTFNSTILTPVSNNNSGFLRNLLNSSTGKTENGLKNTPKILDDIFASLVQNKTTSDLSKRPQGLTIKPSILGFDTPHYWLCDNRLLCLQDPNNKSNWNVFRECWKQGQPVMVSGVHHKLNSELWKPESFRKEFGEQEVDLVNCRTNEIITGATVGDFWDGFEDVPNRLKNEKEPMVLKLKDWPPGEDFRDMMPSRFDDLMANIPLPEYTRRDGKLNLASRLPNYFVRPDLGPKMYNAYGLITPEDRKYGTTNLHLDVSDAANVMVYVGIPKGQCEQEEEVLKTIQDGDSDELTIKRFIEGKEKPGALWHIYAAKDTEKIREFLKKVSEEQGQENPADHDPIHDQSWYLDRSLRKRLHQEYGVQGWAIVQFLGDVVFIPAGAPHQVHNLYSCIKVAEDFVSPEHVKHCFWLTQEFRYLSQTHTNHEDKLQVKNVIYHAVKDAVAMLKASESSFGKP

KDM2A = target: T3, KDM2A (human, UniProt Q9Y2K7 1-1162); test: cell-based or functional assay
T3 sequence (looked up): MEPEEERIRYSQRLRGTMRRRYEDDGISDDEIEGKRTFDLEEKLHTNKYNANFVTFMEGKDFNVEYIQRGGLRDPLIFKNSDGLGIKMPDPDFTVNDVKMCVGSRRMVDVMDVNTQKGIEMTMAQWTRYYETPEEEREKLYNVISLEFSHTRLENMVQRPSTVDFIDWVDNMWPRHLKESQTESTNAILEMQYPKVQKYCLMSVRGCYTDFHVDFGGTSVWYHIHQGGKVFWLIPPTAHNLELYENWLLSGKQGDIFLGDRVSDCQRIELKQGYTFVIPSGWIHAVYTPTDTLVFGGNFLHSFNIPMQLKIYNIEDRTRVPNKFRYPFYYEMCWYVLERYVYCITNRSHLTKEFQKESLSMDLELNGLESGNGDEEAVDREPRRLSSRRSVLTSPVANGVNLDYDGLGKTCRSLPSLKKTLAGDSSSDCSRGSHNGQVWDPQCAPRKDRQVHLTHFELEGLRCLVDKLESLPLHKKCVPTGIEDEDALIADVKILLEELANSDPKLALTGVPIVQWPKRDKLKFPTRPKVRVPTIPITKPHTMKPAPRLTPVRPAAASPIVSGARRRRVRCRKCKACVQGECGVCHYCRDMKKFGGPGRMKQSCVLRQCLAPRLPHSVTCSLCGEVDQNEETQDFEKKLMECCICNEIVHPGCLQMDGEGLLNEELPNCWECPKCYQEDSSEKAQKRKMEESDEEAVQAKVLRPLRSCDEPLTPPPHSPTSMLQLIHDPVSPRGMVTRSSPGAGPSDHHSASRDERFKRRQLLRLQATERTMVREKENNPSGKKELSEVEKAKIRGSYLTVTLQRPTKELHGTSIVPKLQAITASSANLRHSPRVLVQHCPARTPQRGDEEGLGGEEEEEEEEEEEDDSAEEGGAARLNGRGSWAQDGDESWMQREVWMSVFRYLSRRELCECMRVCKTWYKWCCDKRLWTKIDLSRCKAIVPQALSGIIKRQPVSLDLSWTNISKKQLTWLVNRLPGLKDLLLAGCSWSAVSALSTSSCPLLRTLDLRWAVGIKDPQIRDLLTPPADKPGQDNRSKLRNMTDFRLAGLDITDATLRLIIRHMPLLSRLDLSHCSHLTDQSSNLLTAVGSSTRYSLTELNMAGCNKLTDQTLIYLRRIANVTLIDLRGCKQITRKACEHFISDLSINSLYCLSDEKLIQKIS

factor inhibiting HIF = factor inhibiting HIF (UniProt Q9NWT6 1-349); test: cell-based or functional assay
Sequence of factor inhibiting HIF (Q9NWT6 whole entry): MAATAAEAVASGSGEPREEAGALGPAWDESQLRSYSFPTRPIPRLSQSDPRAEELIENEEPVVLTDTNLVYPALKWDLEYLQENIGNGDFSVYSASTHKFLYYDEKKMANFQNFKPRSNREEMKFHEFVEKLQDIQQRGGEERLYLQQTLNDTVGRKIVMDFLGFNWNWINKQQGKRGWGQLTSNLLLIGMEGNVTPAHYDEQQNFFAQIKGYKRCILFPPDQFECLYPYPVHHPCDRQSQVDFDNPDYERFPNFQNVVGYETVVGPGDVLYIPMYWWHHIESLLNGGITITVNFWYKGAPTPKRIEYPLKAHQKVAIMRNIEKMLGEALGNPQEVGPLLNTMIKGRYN

KDM6B = KDM6B (human, UniProt O15054 1-1643); test: cell-based or functional assay
Sequence of KDM6B (O15054 whole entry, the tested form may be a part): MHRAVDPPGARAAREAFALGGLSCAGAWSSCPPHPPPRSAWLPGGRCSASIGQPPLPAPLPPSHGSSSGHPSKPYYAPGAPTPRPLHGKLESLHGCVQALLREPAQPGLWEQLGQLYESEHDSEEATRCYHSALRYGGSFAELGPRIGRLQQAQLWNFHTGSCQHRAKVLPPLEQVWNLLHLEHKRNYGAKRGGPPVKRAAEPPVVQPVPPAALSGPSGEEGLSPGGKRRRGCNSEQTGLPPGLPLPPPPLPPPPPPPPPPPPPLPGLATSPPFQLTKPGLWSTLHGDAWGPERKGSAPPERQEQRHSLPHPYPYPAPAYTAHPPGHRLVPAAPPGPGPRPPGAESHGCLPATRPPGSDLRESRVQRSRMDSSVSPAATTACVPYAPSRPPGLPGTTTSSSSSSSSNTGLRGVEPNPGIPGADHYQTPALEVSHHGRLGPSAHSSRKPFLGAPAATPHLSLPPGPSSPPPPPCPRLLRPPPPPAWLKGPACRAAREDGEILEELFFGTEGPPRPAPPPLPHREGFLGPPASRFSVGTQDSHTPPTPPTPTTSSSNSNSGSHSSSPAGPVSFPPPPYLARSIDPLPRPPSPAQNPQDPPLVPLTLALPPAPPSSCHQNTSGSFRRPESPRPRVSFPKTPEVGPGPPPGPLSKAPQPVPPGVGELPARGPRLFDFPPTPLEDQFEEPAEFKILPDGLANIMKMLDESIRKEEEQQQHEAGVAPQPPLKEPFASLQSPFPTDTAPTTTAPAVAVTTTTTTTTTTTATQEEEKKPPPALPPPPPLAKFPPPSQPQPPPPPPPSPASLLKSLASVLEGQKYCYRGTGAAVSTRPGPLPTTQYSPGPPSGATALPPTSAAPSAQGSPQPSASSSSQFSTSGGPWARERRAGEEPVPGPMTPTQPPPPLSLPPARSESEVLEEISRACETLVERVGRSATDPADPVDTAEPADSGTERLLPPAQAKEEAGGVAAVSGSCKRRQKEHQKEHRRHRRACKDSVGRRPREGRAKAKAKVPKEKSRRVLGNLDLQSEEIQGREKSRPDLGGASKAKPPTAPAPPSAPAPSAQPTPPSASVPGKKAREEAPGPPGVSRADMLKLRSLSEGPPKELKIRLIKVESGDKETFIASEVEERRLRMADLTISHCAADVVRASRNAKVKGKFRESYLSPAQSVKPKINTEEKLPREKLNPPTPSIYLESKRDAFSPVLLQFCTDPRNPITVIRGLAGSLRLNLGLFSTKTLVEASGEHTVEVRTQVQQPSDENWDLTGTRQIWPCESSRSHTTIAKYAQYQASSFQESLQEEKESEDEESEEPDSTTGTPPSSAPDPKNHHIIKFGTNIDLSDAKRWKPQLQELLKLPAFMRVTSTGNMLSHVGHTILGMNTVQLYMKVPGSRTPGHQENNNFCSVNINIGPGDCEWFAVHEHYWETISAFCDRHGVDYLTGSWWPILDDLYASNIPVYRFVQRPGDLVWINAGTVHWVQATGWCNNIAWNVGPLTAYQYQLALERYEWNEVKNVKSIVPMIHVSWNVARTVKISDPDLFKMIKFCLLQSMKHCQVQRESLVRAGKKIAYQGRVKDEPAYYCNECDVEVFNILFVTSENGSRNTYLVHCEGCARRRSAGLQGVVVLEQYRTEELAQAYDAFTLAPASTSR

[1] = target: prolyl hydroxylase domain 2 (UniProt Q9GZT9 1-426); test: cell-based or functional assay
Sequence of prolyl hydroxylase domain 2 (Q9GZT9 whole entry, the tested form may be a part): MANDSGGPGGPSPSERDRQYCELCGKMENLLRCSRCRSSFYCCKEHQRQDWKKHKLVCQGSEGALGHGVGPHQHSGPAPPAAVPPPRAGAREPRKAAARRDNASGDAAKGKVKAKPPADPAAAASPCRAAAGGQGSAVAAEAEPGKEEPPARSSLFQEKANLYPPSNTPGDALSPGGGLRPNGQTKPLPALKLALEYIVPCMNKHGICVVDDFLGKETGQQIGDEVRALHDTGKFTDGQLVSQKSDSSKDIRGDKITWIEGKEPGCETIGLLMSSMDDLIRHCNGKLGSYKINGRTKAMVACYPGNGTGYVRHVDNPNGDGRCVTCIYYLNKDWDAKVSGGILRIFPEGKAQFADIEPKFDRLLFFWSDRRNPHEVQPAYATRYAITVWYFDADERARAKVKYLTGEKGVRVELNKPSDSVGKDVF

KDM1A = KDM1A (human, UniProt O60341 1-852); test: cell-based or functional assay
KDM4D = target: T4, KDM4D (human, UniProt Q6B0I6 1-523); test: cell-based or functional assay
T4 sequence (looked up): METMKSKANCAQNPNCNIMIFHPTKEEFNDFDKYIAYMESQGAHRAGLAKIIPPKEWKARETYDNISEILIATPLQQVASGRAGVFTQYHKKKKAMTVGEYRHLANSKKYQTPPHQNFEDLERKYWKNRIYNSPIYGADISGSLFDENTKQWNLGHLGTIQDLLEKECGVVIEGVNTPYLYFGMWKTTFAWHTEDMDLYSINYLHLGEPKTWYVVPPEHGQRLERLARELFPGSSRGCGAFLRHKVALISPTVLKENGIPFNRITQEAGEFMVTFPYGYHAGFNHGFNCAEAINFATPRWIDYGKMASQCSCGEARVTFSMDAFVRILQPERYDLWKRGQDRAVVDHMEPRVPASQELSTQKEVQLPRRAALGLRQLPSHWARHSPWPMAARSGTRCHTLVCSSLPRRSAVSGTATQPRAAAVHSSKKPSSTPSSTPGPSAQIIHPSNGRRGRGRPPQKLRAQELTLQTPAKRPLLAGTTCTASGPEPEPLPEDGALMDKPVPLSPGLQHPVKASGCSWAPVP

KDM5C = KDM5C (human, UniProt P41229 1-1560); test: cell-based or functional assay
Sequence of KDM5C (P41229 whole entry): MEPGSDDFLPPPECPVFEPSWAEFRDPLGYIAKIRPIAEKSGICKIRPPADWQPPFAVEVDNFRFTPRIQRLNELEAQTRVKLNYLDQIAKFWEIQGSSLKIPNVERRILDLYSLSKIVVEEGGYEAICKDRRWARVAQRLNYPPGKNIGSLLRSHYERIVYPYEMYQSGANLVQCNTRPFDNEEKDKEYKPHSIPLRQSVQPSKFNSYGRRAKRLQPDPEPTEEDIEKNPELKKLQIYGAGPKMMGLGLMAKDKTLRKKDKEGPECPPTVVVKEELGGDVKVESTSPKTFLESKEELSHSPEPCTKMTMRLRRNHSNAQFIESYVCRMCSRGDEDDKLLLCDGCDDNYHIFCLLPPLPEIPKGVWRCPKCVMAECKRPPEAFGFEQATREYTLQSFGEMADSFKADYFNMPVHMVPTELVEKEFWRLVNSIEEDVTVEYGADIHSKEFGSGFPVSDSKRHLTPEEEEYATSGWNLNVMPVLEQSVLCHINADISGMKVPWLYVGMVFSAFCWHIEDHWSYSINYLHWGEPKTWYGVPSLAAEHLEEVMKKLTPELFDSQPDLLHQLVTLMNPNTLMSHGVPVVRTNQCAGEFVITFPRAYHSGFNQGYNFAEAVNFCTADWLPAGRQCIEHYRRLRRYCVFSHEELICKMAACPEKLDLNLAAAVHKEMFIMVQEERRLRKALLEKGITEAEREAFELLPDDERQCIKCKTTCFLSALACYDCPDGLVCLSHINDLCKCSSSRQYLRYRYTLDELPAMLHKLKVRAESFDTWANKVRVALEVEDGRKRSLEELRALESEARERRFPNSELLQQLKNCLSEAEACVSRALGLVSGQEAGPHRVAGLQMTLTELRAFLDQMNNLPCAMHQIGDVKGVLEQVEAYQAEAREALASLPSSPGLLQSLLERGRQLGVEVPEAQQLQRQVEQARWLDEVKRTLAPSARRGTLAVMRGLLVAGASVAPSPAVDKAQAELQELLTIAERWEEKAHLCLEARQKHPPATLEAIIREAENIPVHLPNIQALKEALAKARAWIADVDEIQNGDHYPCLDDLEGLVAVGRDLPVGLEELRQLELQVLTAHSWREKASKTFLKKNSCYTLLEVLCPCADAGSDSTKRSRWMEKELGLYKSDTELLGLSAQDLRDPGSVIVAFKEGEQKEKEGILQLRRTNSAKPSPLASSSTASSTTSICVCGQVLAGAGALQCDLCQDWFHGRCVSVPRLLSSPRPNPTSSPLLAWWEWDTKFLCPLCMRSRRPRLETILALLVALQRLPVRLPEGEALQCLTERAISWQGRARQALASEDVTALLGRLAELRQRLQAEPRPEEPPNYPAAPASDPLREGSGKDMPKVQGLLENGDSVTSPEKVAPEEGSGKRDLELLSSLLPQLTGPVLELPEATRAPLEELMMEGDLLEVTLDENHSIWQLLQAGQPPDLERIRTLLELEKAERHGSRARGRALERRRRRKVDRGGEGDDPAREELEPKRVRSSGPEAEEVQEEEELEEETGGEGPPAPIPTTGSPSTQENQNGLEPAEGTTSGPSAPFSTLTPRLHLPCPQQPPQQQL

B1: H3(1–15)K9me3 (peptide, UniProt P68431 2-16, looked up)
peptide: ARTKQTARKSTGGKA
modifications: trimethyl-lysine at 9
notes: histone H3, residues 1-15, Lys9 trimethylated; The H3K9me3 substrate of the formaldehyde dehydrogenase coupled assay is not described further; this molecule is used for it; also called histone H3K9 peptide; H3K9me3
> 1000 fold: fold weaker Kd than the cyclic peptides CP2, CP4 and CP5 (His-KDM4A_(1–359)-Bio)

B2: CP5 (peptide)
chain: YSKYTQSGVRWVC
modifications: not fully specified; N-terminal L-Tyr (^LTyr library, N-chloroacetyl-L-Tyr) cyclised by a thioether to a downstream cysteine
> 10 µM: IC50 of inhibition of demethylase activity (AlphaScreen activity assay) (KDM3A) | IC50 of inhibition of demethylase activity (AlphaScreen activity assay) (KDM2A) | IC50 of inhibition of demethylase activity (AlphaScreen activity assay) (KDM6B) | IC50 of inhibition of KDM1A/LSD1 (fluorescence-based assay) (KDM1A) | IC50 of inhibition of demethylase activity (AlphaScreen activity assay) (KDM4D) | IC50 of inhibition of demethylase activity (AlphaScreen activity assay) (KDM5C)
> 1000 µM: IC50 of inhibition of FIH (MALDI–TOF MS assay) (factor inhibiting HIF) | IC50 of inhibition of PHD2 (MALDI–TOF MS assay) [1]
